Results taken from article PMC10307625, “Inhibiting membrane rupture with NINJ1 antibodies limits tissue injury” (Nature, 2023).

Biological target: the molecule itself
Assay: SEC; purified Flag–NINJ1 alone on Superose 6 Increase 10/300 GL; 20 mM HEPES pH 7.5, 150 mM NaCl, 0.005% LMNG, 0.0005% CHS; peak at 8.5 ml retention volume

B1: N-terminally Flag-tagged mouse NINJ1 (natural protein, UniProt O70131 1-152, looked up)
chain: MESGTEEYELNGDLRPGSPGSPDALPPRWGLRNRPINVNHYANKKSAAESMLDIALLMANASQLKAVVEQGNDFAFFVPLVVLISISLVLQIGVGVLLIFLVKYDLNNPAKHAKLDFLNNLATGLVFIIVVVNIFITAFGVQKPVMDVAPRQ
notes: NINJ1 (ninjurin-1), mouse, expressed from pRK-Flag-mNINJ1; Membrane protein solubilised in 1% LMNG / 0.1% CHS; the oligomer size is heterogeneous and no copy number is told; also called Flag–NINJ1; recombinant NINJ1; source: Expi293F cells, transiently transfected, purified (anti-Flag M2 resin, Superose 6 SEC) in LMNG/CHS; not shown: FLAG, N-terminal, kept
  binding result: binds
